This test in a line: UDP luminescence plate assay of E. coli extracts, mutants of SEQ ID No: 1, 2 mM metribuzin. It is filed as biochemical, Zea mays. How it is done:
Optionally plate assays are stopped with brief heating to 95 C before returning to ice and addition of UDP-Glo detection reagent followed by incubation at lab temperature. […] In addition a UDP standard curve is run alongside each set of plate tests.
Assays were carried out on extracts of E. coli BL21 DE3 expressing the various C-terminally his-tagged library variants of SEQ ID NO:1 at the amino acid positions listed in Table 11 as described in Example 2 except, in this case, with 2 mM metribuzin in place of herbicide V.
Thus the ratio of the metribuzin to DMSO signal as well as the increase in signal relative to the w/t bx9 is used to help distinguish those mutations most likely to offer the highest activity to metribuzin. A follow up assay monitored by, for example, LC MS is one method to distinguish these cases more quantitatively.

Here are results for six molecules from patent US20200270588A1, “GLUCOSYL TRANSFERASE POLYPEPTIDES AND METHODS OF USE” (Syngenta Participations AG, priority 2017, published 2020).

B1: bx9 w/t: wild type Zea mays bx9 glucosyl transferase, C-terminally his-tagged SEQ ID NO: 1 (protein)
chain: MASSRTGAGAGGRVVVFPFPFQGHFNPVMRLARALHARGLAITVFHSGALDPADYPADYRFVPVTVEADPKLLASEDIAAIVTTLNASCDAPFRARLSALLAAEGRDSVRCVFTDVSWNAVLTASSDLGVPALGMMTASAASLRDYMAYRTLIDKGYLPVKEERKEDPVPELPPYLVKDLLRVDTSDLEEFAELLARTVTAARRASGLIFNTFPLIETDTLAEIHKALSVPVFAVAPLNKLVPTATASLHGVVQADRGCLQWLDTQQPGSVLYVSFGSMAAMDPHEFVELAWGLADSKRPFVWVVRPNLIRGFESGALPDGVEDEVRGRGIVVAWAPQEEVLAHPAVGGFLTHNGWNSTVEAISEGVPMVCCPRHGDQFGNMRYVCDVWKVGTELVGEQLERGQVKAAIDRLFGTKEGEEIKERMKEFKIAAAKGIGIGVDVDETASPRTDLTDLVDLIKSF
modifications: C-terminal His tag; Zea mays
For B1, for the setting “2 mM metribuzin”, the “SIGNAL: metribuzin signal of mutant divided by metribuzin signal of w/t bx9” value is given as 1.00. Moreover, under “2 mM metribuzin, 5 ul diluted extract, 40 minutes, DMSO control ~2.3E6, H24A ~1.7E6”, the UDP-Glo luminescence signal was ~3.4 E6. Also, the “luminescence signal with metribuzin” value (2 mM metribuzin, H24A null background 1.00E+05 not subtracted) is reported as 1.23E+05. Moreover, the “SIGNAL: metribuzin signal of mutant divided by the signal of w/t bx9” value (2 mM metribuzin, relative to bx9 w/t) amounted to 1.00. Moreover, the “luminescence signal in the DMSO control” value (mutants of SEQ ID No: 1, DMSO in place of metribuzin (background UDP-glucose hydrolysis)) is reported as 2.76E+05. In addition, the “luminescence signal observed with 2 mM metribuzin” value (mutants of SEQ ID No: 1 in E. coli extracts, 2 mM metribuzin, UDP luminescence) is on record as 2.80E+05.

B2: S117G, M279W, E339V: mutant combination of bx9 SEQ ID NO:1 (protein)
chain: MASSRTGAGAGGRVVVFPFPFQGHFNPVMRLARALHARGLAITVFHSGALDPADYPADYRFVPVTVEADPKLLASEDIAAIVTTLNASCDAPFRARLSALLAAEGRDSVRCVFTDVGWNAVLTASSDLGVPALGMMTASAASLRDYMAYRTLIDKGYLPVKEERKEDPVPELPPYLVKDLLRVDTSDLEEFAELLARTVTAARRASGLIFNTFPLIETDTLAEIHKALSVPVFAVAPLNKLVPTATASLHGVVQADRGCLQWLDTQQPGSVLYVSFGSWAAMDPHEFVELAWGLADSKRPFVWVVRPNLIRGFESGALPDGVEDEVRGRGIVVAWAPQVEVLAHPAVGGFLTHNGWNSTVEAISEGVPMVCCPRHGDQFGNMRYVCDVWKVGTELVGEQLERGQVKAAIDRLFGTKEGEEIKERMKEFKIAAAKGIGIGVDVDETASPRTDLTDLVDLIKSF
modifications: Zea mays
B2: where the note is “2 mM metribuzin”, the “factor of increased signal relative to the bx9 w/t control signal (first parentheses)” value was 7.5 and the “ratio of activity with metribuzin relative to activity with DMSO (second parentheses)” value is listed as 5.0.

B3: S117G, M279W, E339A: mutant combination of bx9 SEQ ID NO:1 (protein)
chain: MASSRTGAGAGGRVVVFPFPFQGHFNPVMRLARALHARGLAITVFHSGALDPADYPADYRFVPVTVEADPKLLASEDIAAIVTTLNASCDAPFRARLSALLAAEGRDSVRCVFTDVGWNAVLTASSDLGVPALGMMTASAASLRDYMAYRTLIDKGYLPVKEERKEDPVPELPPYLVKDLLRVDTSDLEEFAELLARTVTAARRASGLIFNTFPLIETDTLAEIHKALSVPVFAVAPLNKLVPTATASLHGVVQADRGCLQWLDTQQPGSVLYVSFGSWAAMDPHEFVELAWGLADSKRPFVWVVRPNLIRGFESGALPDGVEDEVRGRGIVVAWAPQAEVLAHPAVGGFLTHNGWNSTVEAISEGVPMVCCPRHGDQFGNMRYVCDVWKVGTELVGEQLERGQVKAAIDRLFGTKEGEEIKERMKEFKIAAAKGIGIGVDVDETASPRTDLTDLVDLIKSF
modifications: Zea mays
As for B3, under “2 mM metribuzin”, the “factor of increased signal relative to the bx9 w/t control signal (first parentheses)” value turned out to be 5.0 and the “ratio of activity with metribuzin relative to activity with DMSO (second parentheses)” value is 6.5.

B4: M279F, H375Y: mutant combination of bx9 SEQ ID NO:1 (protein)
chain: MASSRTGAGAGGRVVVFPFPFQGHFNPVMRLARALHARGLAITVFHSGALDPADYPADYRFVPVTVEADPKLLASEDIAAIVTTLNASCDAPFRARLSALLAAEGRDSVRCVFTDVSWNAVLTASSDLGVPALGMMTASAASLRDYMAYRTLIDKGYLPVKEERKEDPVPELPPYLVKDLLRVDTSDLEEFAELLARTVTAARRASGLIFNTFPLIETDTLAEIHKALSVPVFAVAPLNKLVPTATASLHGVVQADRGCLQWLDTQQPGSVLYVSFGSFAAMDPHEFVELAWGLADSKRPFVWVVRPNLIRGFESGALPDGVEDEVRGRGIVVAWAPQEEVLAHPAVGGFLTHNGWNSTVEAISEGVPMVCCPRYGDQFGNMRYVCDVWKVGTELVGEQLERGQVKAAIDRLFGTKEGEEIKERMKEFKIAAAKGIGIGVDVDETASPRTDLTDLVDLIKSF
modifications: Zea mays
As to B4, under “2 mM metribuzin”, the “factor of increased signal relative to the bx9 w/t control signal (first parentheses)” value was found to be 5.0 and the “ratio of activity with metribuzin relative to activity with DMSO (second parentheses)” value was 6.0.

B5: M279F, E339A, H375Y: mutant combination of bx9 SEQ ID NO:1 (protein)
chain: MASSRTGAGAGGRVVVFPFPFQGHFNPVMRLARALHARGLAITVFHSGALDPADYPADYRFVPVTVEADPKLLASEDIAAIVTTLNASCDAPFRARLSALLAAEGRDSVRCVFTDVSWNAVLTASSDLGVPALGMMTASAASLRDYMAYRTLIDKGYLPVKEERKEDPVPELPPYLVKDLLRVDTSDLEEFAELLARTVTAARRASGLIFNTFPLIETDTLAEIHKALSVPVFAVAPLNKLVPTATASLHGVVQADRGCLQWLDTQQPGSVLYVSFGSFAAMDPHEFVELAWGLADSKRPFVWVVRPNLIRGFESGALPDGVEDEVRGRGIVVAWAPQAEVLAHPAVGGFLTHNGWNSTVEAISEGVPMVCCPRYGDQFGNMRYVCDVWKVGTELVGEQLERGQVKAAIDRLFGTKEGEEIKERMKEFKIAAAKGIGIGVDVDETASPRTDLTDLVDLIKSF
modifications: Zea mays
B5: for the setting “2 mM metribuzin”, the “factor of increased signal relative to the bx9 w/t control signal (first parentheses)” value turned out to be 7.5 and the “ratio of activity with metribuzin relative to activity with DMSO (second parentheses)” value came to 7.0.

B6: A432L: bx9 SEQ ID NO:1 mutant (protein)
chain: MASSRTGAGAGGRVVVFPFPFQGHFNPVMRLARALHARGLAITVFHSGALDPADYPADYRFVPVTVEADPKLLASEDIAAIVTTLNASCDAPFRARLSALLAAEGRDSVRCVFTDVSWNAVLTASSDLGVPALGMMTASAASLRDYMAYRTLIDKGYLPVKEERKEDPVPELPPYLVKDLLRVDTSDLEEFAELLARTVTAARRASGLIFNTFPLIETDTLAEIHKALSVPVFAVAPLNKLVPTATASLHGVVQADRGCLQWLDTQQPGSVLYVSFGSMAAMDPHEFVELAWGLADSKRPFVWVVRPNLIRGFESGALPDGVEDEVRGRGIVVAWAPQEEVLAHPAVGGFLTHNGWNSTVEAISEGVPMVCCPRHGDQFGNMRYVCDVWKVGTELVGEQLERGQVKAAIDRLFGTKEGEEIKERMKEFKIALAKGIGIGVDVDETASPRTDLTDLVDLIKSF
modifications: Zea mays
For the molecule B6, for the setting “2 mM metribuzin”, the “factor of increased signal relative to the bx9 w/t control signal (first parentheses)” value worked out at 6 and the “ratio of activity with metribuzin relative to activity with DMSO (second parentheses)” value was 1.30.
